Results from publication PMC9672302, “H2A.Z deposition by SWR1C involves multiple ATP-dependent steps” (Nature Communications, 2022).
One block for each compound: values may come before it.

How the values were obtained:
[1] = system: SWR1C (SWR1 complex) (Saccharomyces cerevisiae (FLAG-tagged Swr1 strain)); assay: fluorescence polarization; conditions: FP: 25 mM HEPES-KOH pH 7.6, 70 mM KCl, 0.2 mM EDTA, 5 mM MgCl2, 1 mM DTT, 0.1 mg/mL BSA, 10 nM nucleosome, 1 mM nucleotide where added, 20 min, room …
[2] = molecular target: T1, SWR1C (Saccharomyces cerevisiae, UniProt Q05471); assay: fluorescence polarization of SWR1C binding to labelled H2A nucleosome with added nucleotide (no constant for the nucleotide); conditions: 1 mM ADP, 10 nM 77N4-ATTO 647N nucleosome, 5 mM MgCl2, pH 7.6, room temperature; indirect, nucleotide modulates nucleosome affinity
T1 construct: gene SWR1; native multi-subunit remodeler complex purified from a yeast strain with FLAG-tagged Swr1, eluted with 3x FLAG peptide; tag kept; with SWR1-complex protein 5; SWR1-complex protein 3; Vacuolar protein sorting-associated protein 71; Actin-like protein ARP6; Vacuolar protein sorting-associated protein 72; SWR1-complex protein 4; SWR1-complex protein 7; Protein AF-9 homolog; Bromodomain-containing factor 1; Actin-related protein 4; Actin; RuvB-like protein 1; RuvB-like protein 2

[3] = molecular target: T1, SWR1C; assay: single-molecule FRET of H2A/H2B eviction from immobilised nucleosomes; format: biochemical; conditions: co-substrates yeast/Xenopus hybrid nucleosome 117N4, H2A.Z/H2B dimer, chaperone Chz1; 0-100 uM ATP; 4 mM MgCl2, pH 7.6, room temperature
[4] = molecular target: SWR1C-nucleosome (SWR1C bound to the tethered biotinTEG-117N4-ATTO 647N H2A nucleosome) (S. cerevisiae | not stated (X. laevis H3.1 or H. sapiens H3.2 C110A made) | X. laevis | yeast (endogenous in the FLAG-tagged Swr1 yeast strain)) (UniProt P04911); assay: single-molecule fluorescence colocalisation (TIRF, smFRET set-up); biotinTEG-117N4-ATTO 647N nucleosomes incubated with 25 nM SWR1C and tethered on a streptavidin-coated slide; 50 nM Cy3B-labeled H2A.Z-H2B dimer, 50 nM Chz1, 200 uM ATP, 10 nM 77N0 nucleosome in solution; room temperature; 5 min of acquisition
[5] = molecular target: H2A.Z nucleosomal product with SWR1C (tethered biotinTEG-117N4-ATTO 647N nucleosome after dimer exchange) (S. cerevisiae | not stated (X. laevis H3.1 or H. sapiens H3.2 C110A made) | X. laevis | yeast (endogenous in the FLAG-tagged Swr1 yeast strain)) (UniProt Q12692); assay: single-molecule fluorescence colocalisation (TIRF, smFRET set-up); as a6 but with 100 uM ATP
[6] = molecular target: H2A.Z nucleosomal product with SWR1C (tethered biotinTEG-117N4-ATTO 647N nucleosome after dimer exchange) (S. cerevisiae | not stated (X. laevis H3.1 or H. sapiens H3.2 C110A made) | X. laevis | yeast (endogenous in the FLAG-tagged Swr1 yeast strain)) (UniProt Q12692); assay: single-molecule fluorescence colocalisation (TIRF, smFRET set-up); tethered biotinTEG-117N4-ATTO 647N, Cy3B-labeled H2A nucleosome with 30 nM SWR1C, 70 nM H2A.Z-H2B dimer, 70 nM Chz1; 0.5 uM ATP; time from the end of eviction (loss of FRET) to the loss of the Cy3B signal, Kaplan-Meier half-life; room temperature
[7] = molecular target: H2A nucleosome (77N4-ATTO 647N nucleosome) (S. cerevisiae | not stated (X. laevis H3.1 or H. sapiens H3.2 C110A made) | X. laevis) (UniProt P04911); assay: fluorescence polarisation; as a1 but with 1 mM ADP; apparent Kd
[8] = molecular target: H2A nucleosome (77N4-ATTO 647N nucleosome) (S. cerevisiae | not stated (X. laevis H3.1 or H. sapiens H3.2 C110A made) | X. laevis) (UniProt P04911); assay: fluorescence polarisation; as a1 but with 1 mM ATP; apparent Kd
[9] = molecular target: H2A nucleosome (77N4-ATTO 647N nucleosome) (S. cerevisiae | not stated (X. laevis H3.1 or H. sapiens H3.2 C110A made) | X. laevis) (UniProt P04911); assay: fluorescence polarisation; as a1 but with 1 mM AMP-PNP; apparent Kd
[10] = molecular target: H2A nucleosome (77N4-ATTO 647N nucleosome) (S. cerevisiae | not stated (X. laevis H3.1 or H. sapiens H3.2 C110A made) | X. laevis) (UniProt P04911); assay: fluorescence polarisation; 0-250 nM SWR1C titrated to 10 nM 77N4-ATTO 647N nucleosome, no nucleotide; 25 mM HEPES-KOH pH 7.6, 70 mM KCl, 0.2 mM EDTA, 5 mM MgCl2, 1 mM DTT, 0.1 mg/mL BSA; 20 min, room temperature; quadratic binding equation, global fit; apparent Kd
[11] = molecular target: H2A.Z nucleosome (77N4-ATTO 647N nucleosome) (S. cerevisiae | not stated (X. laevis H3.1 or H. sapiens H3.2 C110A made) | X. laevis) (UniProt Q12692); assay: as above

Compound: 77N4 H2A nucleosome (ATTO 647N)
- Kd ([1]; 1 mM ADP): 21 nM
- Kd ([1]; 1 mM AMP-PNP): 14 nM
- Kd ([1]; 1 mM ATP): 31 nM
- Kd ([1]; no nucleotide (apo), 5 replicates): 12 nM

Compound: 77N4 H2A.Z nucleosome (ATTO 647N)
- Kd ([1]; no nucleotide (apo)): 25 nM

Compound: Nc1ncnc2c1ncn2[C@@H]1O[C@H](COP(=O)(O)OP(=O)(O)O)[C@@H](O)[C@H]1O [ADP]
- fluorescence polarization of SWR1C binding to labelled H2A nucleosome with added [2]: a decrease in binding was also observed with ADP

Compound: Nc1ncnc2c1ncn2[C@@H]1O[C@H](COP(=O)(O)OP(=O)(O)OP(=O)(O)O)[C@@H](O)[C@H]1O [ATP]
- single-molecule FRET of H2A/H2B eviction from immobilised nucleosomes [3]: Priming is ATP-sensitive, as the duration of the priming phase (tprime) decreased with increasing ATP concentration

- mean lifetime of the bound state [4]: 34 s
- percent of nucleosomes bound within 10 s [4]: 50%
- percent of nucleosomes that bound at least one dimer in 5 min [4]: 89%
Compound: Cy3B-H2A.Z/H2B dimer (from UniProt P02293 5-131) (complex)

- half-life of release (t release) [5]: 1.6 min
- half-life of release (t release) [6]: 3.65 min
Compound: Cy3B-labeled H2A/H2B dimer (from UniProt P02293 5-131) (complex)

- Kd [7]: 21 nM
- Kd [8]: 31 nM
- Kd [9]: 14 nM
- Kd [10]: 12 nM
- Kd [11]: 25 nM
Compound: SWR1C (from UniProt Q05471 1-1514; P38326 1-303; Q12509 1-438; Q03433 1-280; P31376 1-625) (complex)
